Results on 1 molecule are retold here after patent US20090118165A1 (CASE WESTERN RESERVE UNIVERSITY, published 2009).

Where no end group is shown, it is not given here. The star is where a group is joined. Biotin = O=C1N[C@H]2[C@H](CS[C@H]2CCCCC(=O)*)N1

The test deals with T1, Bax (endogenous, in lysate of human Dami megakaryocytic cells) (human, UniProt Q07812 1-192, limits assumed).
T1 construct: Endogenous protein in a cell lysate
As to the kind of experiment: pull-down of biotin-labeled peptide with streptavidin beads from Dami cell lysate, Western blot with anti-Bax antibody. As for the experimental part:
FIG. 1 illustrates Western Blots of Dami cell lysates incubated in the absence or presence of 200 μM biotin-labeled peptides. The peptides were: KLPVM (SEQ ID NO:8) (scrambled negative control), VPMLK (SEQ ID NO:2) (human version), VPTLK (SEQ ID NO:5) (mouse version), and VPALR (SEQ ID NO:6) (rat version). Immuno-precipitation was performed with streptavidin beads. Western blot analysis of immune precipitated samples were performed with anti-Bax polyclonal antibody.
Co-precipitation was performed as previously described (Yoshida, T., et al., Bax-inhibiting peptide derived from mouse and rat Ku70. Biochem Biophys Res Commun, 2004. 321(4): p. 961-6). […] After the precleaning of 200 μl of sample with 20 μl of streptavidin beads (Amersham-Pharmacia Biotech) at 4° C. for 1 h, the samples were incubated with 200 μM of various biotin-labeled peptides (biotin-KLPVM (SEQ ID NO:8), VPMLK (SEQ ID NO:2), VPTLK (SEQ ID NO:5) or VPALR (SEQ ID NO:6) for 2 h. Streptavidin beads (20 μl) were added to the samples and the mixtures were incubated at 4° C. After 2 h of incubation, the beads were washed with 100 μl of Chaps buffer 3 times by centrifugation (1000 rpm, at 4° C., 15 sec). The beads were boiled in 40 μl of Laemmli buffer and the eluted proteins (20 μl) were analyzed by Western blotting with anti-human Bax polyclonal antibody (BD-Pharmingen). […]
(In general: Immunoblotting shows a protein as a band on a membrane.)

T1 sequence (Q07812 whole entry): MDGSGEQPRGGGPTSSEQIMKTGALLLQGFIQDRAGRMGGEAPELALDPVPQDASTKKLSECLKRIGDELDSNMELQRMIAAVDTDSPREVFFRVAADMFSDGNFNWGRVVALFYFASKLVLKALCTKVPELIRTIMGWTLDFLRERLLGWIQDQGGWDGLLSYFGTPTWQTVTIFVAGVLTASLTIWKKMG

B1: biotin-KLPVM (SEQ ID NO:8), scrambled negative control peptide (peptide)
peptide: Biotin-KLPVM
notes: Synthetic scrambled control peptide, biotin-labeled, used at 200 uM in Dami cell lysate
In the case of B1, the binding result is “no binding (tested: 200 µM)”.
